Positions count from the first letter of the chain named.

In test [1] the target is T1, Human interleukin 23 (hIL-23) (human, UniProt Q9NPF7 20-189; P29460 23-328).
T1 construct: Heterodimer of p19 and p40; bought (Shanghai Novoprotein); also called human IL-23
T1 sequence 1: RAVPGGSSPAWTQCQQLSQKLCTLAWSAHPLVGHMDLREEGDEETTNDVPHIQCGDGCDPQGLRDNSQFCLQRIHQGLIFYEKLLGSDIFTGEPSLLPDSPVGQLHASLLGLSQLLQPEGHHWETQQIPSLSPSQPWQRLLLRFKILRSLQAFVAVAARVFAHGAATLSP
T1 sequence 2: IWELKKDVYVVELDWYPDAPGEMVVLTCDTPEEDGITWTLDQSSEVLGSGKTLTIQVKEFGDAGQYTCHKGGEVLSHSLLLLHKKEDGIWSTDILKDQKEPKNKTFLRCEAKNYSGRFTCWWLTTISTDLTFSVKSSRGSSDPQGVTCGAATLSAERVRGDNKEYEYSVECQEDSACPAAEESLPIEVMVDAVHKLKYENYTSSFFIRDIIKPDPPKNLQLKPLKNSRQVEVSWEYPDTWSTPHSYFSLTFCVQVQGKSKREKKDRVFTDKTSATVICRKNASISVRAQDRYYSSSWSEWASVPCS
Kind of test: SPR, Biacore T200, antibody captured on Protein A chip, IL-23 in flow, 25 °C, 1:1 model. As to the method:
Commercialized Protein A chip was used to immobilize an appropriate amount of antibody by capture method, the Rmax was about 50 RU and the capture flow rate was 10 μl/min. The antigen was diluted by gradient, and the flow rate of the instrument was switched to 30 μl/min. The diluted antigen flowed through the reference channel and the channel of immobilized antibody in sequence from low to high concentration, and flowed through the buffer as negative control. The chip was regenerated with glycine at pH 1.5 after each binding and dissociation. Fitting was performed with the 1:1 binding model in the Kinetics option using the build-in software in the instrument, and the association rate constant k_a, dissociation rate constant […] and equilibrium dissociation constant K_D of the antibody were calculated.

For test [2], the target named is T2, IL-23 mutant L140P (human, UniProt Q9NPF7 20-189; P29460 23-328).
T2 construct: 293F cell supernatant
T2 chain 1: T1 sequence 1 with L140P
T2 chain 2: T1 sequence 2
Description: binding ELISA, antibody coated at 1 µg/ml, IL-23 mutant supernatant titrated; N.D: the binding is weak, and the EC50 value is not accurate. As to the method: (§1) Mutation primers were designed through PCR method. The p19 mutant plasmid was co-transfected with p40 plasmid into 293F cells to prepare a cell supernatant containing the IL-23 mutant.
(§2) After blocking, a series of cell supernatant dilutions of IL-23 mutant diluted to a concentration ranging from 0 to 0.5 μg/ml for incubation. Then, Biotin labeled anti-His antibody and SA-HRP were added respectively for incubation, finally the substrate was added for color development, and the termination solution was added to terminate the color reaction. After termination, the ELISA plate was placed in a microplate reader to read the absorption value at 450 nm (the absorption values at 650 nm was taken as reference), and the dose effect curve was plotted and the $EC50$ value was calculated.
For orientation: An ELISA detects its analyte on a solid surface through an enzyme-linked reagent.

Test [3] addresses T3, IL-23 mutant F144S (human, UniProt Q9NPF7 20-189; P29460 23-328).
T3 construct: 293F cell supernatant
T3 chain 1: T1 sequence 1 with F144S
T3 chain 2: T1 sequence 2
The test is described as above. As to the method: as §1, §2

The target of test [4] is T1, Human interleukin 23 (hIL-23). Description: cell-based or functional assay.
Another test addresses T4, IL-23-p40 (human, UniProt P29460 23-328).
T4 construct: also called p40 subunit of IL-23; IL-12/IL-23p40
T4 sequence: T1 sequence 2
Kind of test: Binding ELISA: IL-23-p40 coated at 2 ug/ml, goat anti-human IgG secondary antibody, OD450 (reference 650 nm).

The next test has as its target T5, IL-23 mutant W137D (human, UniProt Q9NPF7 20-189; P29460 23-328).
T5 construct: 293F cell supernatant
T5 chain 1: T1 sequence 1 with W137D
T5 chain 2: T1 sequence 2
Kind of test: binding ELISA, antibody coated at 1 µg/ml, IL-23 mutant supernatant titrated, anti-His detection. The procedure: as §1, §2

A further test concerns the target T6, IL-23 mutant W137A (human, UniProt Q9NPF7 20-189; P29460 23-328).
T6 construct: p19 mutant plasmid co-transfected with p40 plasmid into 293F cells; used as cell supernatant
T6 chain 1: T1 sequence 1 with W137A
T6 chain 2: T1 sequence 2
Described as above. As to the method:
as §1, §2

The target in the next test is T7, IL-23 mutant R143A (human, UniProt Q9NPF7 20-189; P29460 23-328).
T7 construct: 293F cell supernatant
T7 chain 1: T1 sequence 1 with R143A
T7 chain 2: T1 sequence 2
The test is described as above. As to the method: as §1, §2

The target of a further test is T8, Natural IL-23 (human, UniProt Q9NPF7 20-189; P29460 23-328).
T8 construct: It was detected with an anti-His antibody, so it carries a His tag
T8 sequence 1: T1 sequence 1
T8 sequence 2: T1 sequence 2
Description: binding ELISA, antibody coated at 1 µg/ml, IL-23 titrated, anti-His detection.

Test [5] has as its target T2, IL-23 mutant L140P. Description: binding ELISA, antibody coated at 1 µg/ml, IL-23 mutant supernatant titrated, anti-His detection. The procedure:
as §1, §2

For test [6], the target named is T3, IL-23 mutant F144S. Described as above. The procedure: as §1, §2

Description for IL-23-p40: IL-23-p40 was diluted to 2 μg/ml, added to the ELISA plate, and coated overnight at 4° C. After blocking, a series of antibody dilutions diluted to a concentration ranging from 0 to 5 μg/ml and Goat-anti-human IgG secondary antibody were added respectively for incubation, finally substrate was added for color development, and the termination solution was added to terminate the color reaction. After termination, the ELISA plate was placed in a microplate reader to read the absorption value at 450 nm (the absorption value at 650 nm was taken as reference), and the dose effect curve was plotted to analyze the binding specificity of the antibody.

B1: QX004N (HZD90-32) (antibody, human IgG1, kappa, V domains shown)
VH: EVQLVESGGGLVQPGGSLRLSCAASGFSLSNHEMSWVRQAPGKGLEWIGIITTSDTTYYATWAKGRFTISRDNSKNTLYLQMNSLRAEDTAVYYCARVDIVLLSVTSRIWGQGTLVTVSS
VL: DVVMTQSPSSLSASVGDRVTITCQASQSVSTYLSWYQQKPGKAPKLLIYGASNLESGVPSRFSGSGSGTDFTLTISSLQPEDFATYYCQSGYVFAGLTFGGGTKVEIKR
notes: Expressed in ExpiCHO-S cells, purified on Protein A; also called humanized clone 90#; 90VH-Hu18/90VK-Hu9
As usually defined, the Kd is the equilibrium constant for the complex coming apart. A higher Kd goes with weaker binding. By koff is commonly meant the first-order rate constant of dissociation. In general, kon refers to the second-order rate constant of association. For orientation: EC50 means the concentration needed to bring the measured effect to its halfway point. For the molecule B1, binding in test [1] was put at a Kd of 0.101 nM. In [1], this molecule registered a koff of 3.5e-05 s⁻¹. This molecule returned a kon in [1] of 366000 M⁻¹ s⁻¹. For the same molecule, the binding result with IL-23 mutant L140P [2] is listed as “binds”; in the test with IL-23 mutant F144S [3], “binds”; with IL-23-p40, “no binding”. For the same molecule, the “IC50, inhibition of phosphorylation of STAT3 in HEK Blue IL-23 cells induced by IL-23” value in [4] worked out at 3.21 ng/mL. Moreover, in test [4], the “IC50, inhibition of release of IFN-γ from human NK cells induced by IL-23” value amounted to 10.4 ng/mL. The “IC50, inhibition of release of IL-17A from mouse spleen cells induced by IL-23” value in [4] came out at 11.7 ng/mL. The EC50 was found to be 0.363 µg/mL with IL-23 mutant W137D, 0.0501 µg/mL with IL-23 mutant W137A, 0.0034 µg/mL with IL-23 mutant R143A and 1.7 ng/mL in the test with Natural IL-23.

B2: Risankizumab (antibody, V domains shown)
VH: QVQLVQSGAEVKKPGSSVKVSCKASGYTFTDQTIHWMRQAPGQGLEWIGYIYPRDDSPKYNENFKGKVTITADKSTSTAYMELSSLRSEDTAVYYCAIPDRSGYAWFIYWGQGTLVTVSS
VL: DIQMTQSPSSLSASVGDRVTITCKASRDVAIAVAWYQQKPGKVPKLLIYWASTRHTGVPSRFSGSGSRTDFTLTISSLQPEDVADYFCHQYSSYPFTFGSGTKLEIKR
As for B2, the EC50 with IL-23 mutant W137D amounted to 0.0052 µg/mL; with IL-23 mutant L140P [5] it was 0.0544 µg/mL; with IL-23 mutant F144S [6], 0.0101 µg/mL; with IL-23 mutant W137A it was 0.0023 µg/mL; with IL-23 mutant R143A, 0.307 µg/mL.

The values above are taken from patent publication US12692303 (QYUNS THERAPEUTICS, dated 2026).
